Sequences and labels used below:
B1: PPFIA4 (parent)
chain: YAGNLHESGVHGALLALDENFDHN
B2: ATE1 (parent)
chain: DYFPSEDFYRCGYCKNESGSRSNG
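Note: lentivirally expressed fusions sorted by FACS into six bins by GFP to DsRed ratio, PSI derived from sequencing read proportions per bin multiplied by bin number.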

Variants of B1 are the subject of one series. Kind of series: protein stability index of a GFP-peptide fusion (GPS, HEK-293T) (PSI 1-6); higher = more stable. The following applies: c terminus: a fixed tail appended.
As to YAGNLHESHVHGALLALDENFDHN [G9H], the protein stability index amounted to 2.65.

With YAGNLHESGFHGALLALDENFDHN [V10F], the protein stability index was found to be 2.25.

For YAGNLHESGDHGALLALDENFDHN [V10D], the protein stability index was determined as 4.04.

Take YAGNLHESGKHGALLALDENFDHN [V10K]: the protein stability index stood at 2.97.

In the case of YAGNLHESGGHGALLALDENFDHN [V10G], the protein stability index stood at 2.8.

Turning to YAGNLHESGLHGALLALDENFDHN [V10L], the protein stability index came out at 2.35.

Regarding YAGNLHESGIHGALLALDENFDHN [V10I], the protein stability index was 2.23.

Turning to YAGNLHESGAHGALLALDENFDHN [V10A], the protein stability index worked out at 3.11.

For YAGNLHESGCHGALLALDENFDHN [V10C], the protein stability index was determined as 2.06.

As for YAGNLHESGEHGALLALDENFDHN [V10E], the protein stability index came to 4.11.

Turning to YAGNLHESGHHGALLALDENFDHN [V10H], the protein stability index was 2.7.

As for YAGNLCESGVHGALLALDENFDHN [H6C], the protein stability index was 2.92.

As for YAGNLQESGVHGALLALDENFDHN [H6Q], the protein stability index was 2.19.

As to YAGNLIESGVHGALLALDENFDHN [H6I], the protein stability index came out at 2.23.

With YAGNLKESGVHGALLALDENFDHN [H6K], the protein stability index came to 2.24.

As to YAGNLRESGVHGALLALDENFDHN [H6R], the protein stability index stood at 1.92.

Turning to YAGNLGESGVHGALLALDENFDHN [H6G], the protein stability index was determined as 2.82.

On to YAGNLSESGVHGALLALDENFDHN [H6S], for which the protein stability index is 2.27.

With YAGNLFESGVHGALLALDENFDHN [H6F], the protein stability index was 1.99.

For the variant YAGNLVESGVHGALLALDENFDHN [H6V], the protein stability index is 2.5.

YAGNLNESGVHGALLALDENFDHN [H6N]: the protein stability index stood at 2.05.

For YAGNLMESGVHGALLALDENFDHN [H6M], the protein stability index amounted to 2.09.

As to YAGNLEESGVHGALLALDENFDHN [H6E], the protein stability index is 3.7.

With YAGNLYESGVHGALLALDENFDHN [H6Y], the protein stability index came out at 1.88.

In the case of YAGNLAESGVHGALLALDENFDHN [H6A], the protein stability index is 2.78.

In the case of YAGNLDESGVHGALLALDENFDHN [H6D], the protein stability index is 2.72.

On to YAGNLLESGVHGALLALDENFDHN [H6L], for which the protein stability index turned out to be 2.01.

As for YAGNLPESGVHGALLALDENFDHN [H6P], the protein stability index is 2.98.

Turning to YAGNLTESGVHGALLALDENFDHN [H6T], the protein stability index was determined as 2.83.

Turning to YAGMLHESGVHGALLALDENFDHN [N4M], the protein stability index was 2.29.

In the case of YAGYLHESGVHGALLALDENFDHN [N4Y], the protein stability index is 2.2.

On to YAGQLHESGVHGALLALDENFDHN [N4Q], for which the protein stability index worked out at 3.69.

Take YAGALHESGVHGALLALDENFDHN [N4A]: the protein stability index was 2.48.

Turning to YAGELHESGVHGALLALDENFDHN [N4E], the protein stability index is 3.82.

As for YAGILHESGVHGALLALDENFDHN [N4I], the protein stability index turned out to be 2.53.

With YAGPLHESGVHGALLALDENFDHN [N4P], the protein stability index was determined as 2.77.

For YAGWLHESGVHGALLALDENFDHN [N4W], the protein stability index came to 1.67.

As to YAGRLHESGVHGALLALDENFDHN [N4R], the protein stability index was determined as 1.93.

As to YAGDLHESGVHGALLALDENFDHN [N4D], the protein stability index stood at 3.55.

As for YAGGLHESGVHGALLALDENFDHN [N4G], the protein stability index was found to be 2.65.

Turning to YAGLLHESGVHGALLALDENFDHN [N4L], the protein stability index stood at 2.33.

YAGKLHESGVHGALLALDENFDHN [N4K]: the protein stability index amounted to 2.09.

For YAGCLHESGVHGALLALDENFDHN [N4C], the protein stability index came to 2.03.

With YAGFLHESGVHGALLALDENFDHN [N4F], the protein stability index was determined as 1.75.

Regarding YAGSLHESGVHGALLALDENFDHN [N4S], the protein stability index is 1.87.

Regarding YAGVLHESGVHGALLALDENFDHN [N4V], the protein stability index amounted to 2.18.

YAGTLHESGVHGALLALDENFDHN [N4T]: the protein stability index came out at 2.23.

On to YAGHLHESGVHGALLALDENFDHN [N4H], for which the protein stability index was found to be 2.73.

With QAGNLHESGVHGALLALDENFDHN [Y1Q], the protein stability index worked out at 4.64.

As for RAGNLHESGVHGALLALDENFDHN [Y1R], the protein stability index came to 3.7.

Take TAGNLHESGVHGALLALDENFDHN [Y1T]: the protein stability index turned out to be 4.26.

PAGNLHESGVHGALLALDENFDHN [Y1P]: the protein stability index was 5.39.

Consider WAGNLHESGVHGALLALDENFDHN [Y1W], for which the protein stability index amounted to 3.77.

Regarding KAGNLHESGVHGALLALDENFDHN [Y1K], the protein stability index came out at 4.5.

On to DAGNLHESGVHGALLALDENFDHN [Y1D], for which the protein stability index stood at 4.8.

AAGNLHESGVHGALLALDENFDHN [Y1A]: the protein stability index came to 4.8.

For LAGNLHESGVHGALLALDENFDHN [Y1L], the protein stability index stood at 4.49.

With EAGNLHESGVHGALLALDENFDHN [Y1E], the protein stability index worked out at 5.05.

In the case of HAGNLHESGVHGALLALDENFDHN [Y1H], the protein stability index was found to be 4.95.

For the variant NAGNLHESGVHGALLALDENFDHN [Y1N], the protein stability index was 4.81.

On to FAGNLHESGVHGALLALDENFDHN [Y1F], for which the protein stability index was determined as 2.04.

For IAGNLHESGVHGALLALDENFDHN [Y1I], the protein stability index is 3.86.

Regarding GAGNLHESGVHGALLALDENFDHN [Y1G], the protein stability index turned out to be 5.06.

As for MAGNLHESGVHGALLALDENFDHN [Y1M], the protein stability index was 4.81.

For SAGNLHESGVHGALLALDENFDHN [Y1S], the protein stability index came out at 5.03.

As for VAGNLHESGVHGALLALDENFDHN [Y1V], the protein stability index was 4.85.

For CAGNLHESGVHGALLALDENFDHN [Y1C], the protein stability index turned out to be 3.94.

Take YALNLHESGVHGALLALDENFDHN [G3L]: the protein stability index is 3.73.

Take YAINLHESGVHGALLALDENFDHN [G3I]: the protein stability index was determined as 2.81.

For YAYNLHESGVHGALLALDENFDHN [G3Y], the protein stability index came to 1.99.

As for YASNLHESGVHGALLALDENFDHN [G3S], the protein stability index came to 2.95.

Take YAMNLHESGVHGALLALDENFDHN [G3M]: the protein stability index turned out to be 3.55.

For YANNLHESGVHGALLALDENFDHN [G3N], the protein stability index amounted to 2.98.

As to YAHNLHESGVHGALLALDENFDHN [G3H], the protein stability index came out at 2.92.

Turning to YAPNLHESGVHGALLALDENFDHN [G3P], the protein stability index was determined as 2.29.

On to YARNLHESGVHGALLALDENFDHN [G3R], for which the protein stability index amounted to 2.72.

Regarding YACNLHESGVHGALLALDENFDHN [G3C], the protein stability index was 2.64.

Consider YAFNLHESGVHGALLALDENFDHN [G3F], for which the protein stability index was 2.29.

Regarding YAKNLHESGVHGALLALDENFDHN [G3K], the protein stability index was determined as 3.42.

As to YATNLHESGVHGALLALDENFDHN [G3T], the protein stability index came out at 2.69.

Take YAANLHESGVHGALLALDENFDHN [G3A]: the protein stability index was 2.79.

As for YAQNLHESGVHGALLALDENFDHN [G3Q], the protein stability index was found to be 3.12.

For YAVNLHESGVHGALLALDENFDHN [G3V], the protein stability index is 3.11.

On to YADNLHESGVHGALLALDENFDHN [G3D], for which the protein stability index was 3.83.

Consider YAWNLHESGVHGALLALDENFDHN [G3W], for which the protein stability index came out at 2.56.

Regarding YAENLHESGVHGALLALDENFDHN [G3E], the protein stability index was 4.67.

The variants in the next series derive from B2. The series is described as above. Particulars: c terminus: a fixed tail appended.
For DYFPSEDFYRCGYCKNESGSRSNY [G24Y], the protein stability index came to 2.13.

On to DYFPSEDFYRCGYCKNESGSRSNT [G24T], for which the protein stability index was determined as 2.35.

In the case of DYFPSEDFYRCGYCKNESGSRSNR [G24R], the protein stability index is 2.5.

As to DYFPSEDFYRCGYCKNESGSRSNS [G24S], the protein stability index worked out at 1.62.

Consider DYFPSEDFYRCGYCKNESGSRSNQ [G24Q], for which the protein stability index is 1.93.

For DYFPSEDFYRCGYCKNESGSRSNW [G24W], the protein stability index turned out to be 1.78.

Regarding DYFPSEDFYRCGYCKNESGSRSNV [G24V], the protein stability index turned out to be 1.75.

Regarding DYFPSEDFYRCGYCKNESGSRSNP [G24P], the protein stability index is 3.

For the origin of these results see the supplement of paper PMC10567573.
